Test results from patent US20240376170A1 (BRIGHT PEAK THERAPEUTICS, published 2024).
One block for each binder: values may come before it. Bridges are numbered along the chain shown (N, C = ends). Primed or numbered codes have the meaning given here. [ ]: non-standard residue; d: D form. Ygp(4) = Tyr with amino-capped PEG8 (O-(8x polyethylene glycol-amino)-tyrosine); Yn3(4) = Tyr with azide-capped PEG9 (O-(9x polyethylene glycol-azido)-tyrosine); Ygp = O-(8x polyethylene glycol-amino)-tyrosine (Tyr, amino-capped PEG8); Yn3 = O-(9x polyethylene glycol-azido)-tyrosine (Tyr, azide-capped PEG9); Ygp(3) = O-(PEG8-amino)-tyrosine; Yn3(3) = O-(PEG9-azido)-tyrosine; PEG4′ = 4x polyethylene glycol; PEG9′ = 9x polyethylene glycol; hSer = N[C@@H](CCO)C(=O)O; Nle = CCCC[C@H](N)C(=O)O

How the values were obtained:
IL-2 receptor βγ complex [1] = target: T1, IL-2 receptor βγ complex (human, UniProt P14784 27-551; P31785 23-369); assay: cell-based or functional assay
T1 sequence (looked up) 1: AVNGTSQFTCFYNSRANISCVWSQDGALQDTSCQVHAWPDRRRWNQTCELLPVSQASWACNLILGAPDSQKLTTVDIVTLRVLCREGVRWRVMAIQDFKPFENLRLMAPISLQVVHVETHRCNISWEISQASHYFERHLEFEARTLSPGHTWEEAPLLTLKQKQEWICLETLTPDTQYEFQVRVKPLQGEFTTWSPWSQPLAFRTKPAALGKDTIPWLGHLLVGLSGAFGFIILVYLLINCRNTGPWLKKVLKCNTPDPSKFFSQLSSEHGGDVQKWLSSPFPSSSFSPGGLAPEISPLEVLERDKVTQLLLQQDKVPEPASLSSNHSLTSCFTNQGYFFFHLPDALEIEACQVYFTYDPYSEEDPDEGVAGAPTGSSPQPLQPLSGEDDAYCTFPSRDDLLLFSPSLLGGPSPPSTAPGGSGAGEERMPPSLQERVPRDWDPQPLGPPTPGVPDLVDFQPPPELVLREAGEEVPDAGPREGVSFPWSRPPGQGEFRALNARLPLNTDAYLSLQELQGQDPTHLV
T1 sequence (looked up) 2: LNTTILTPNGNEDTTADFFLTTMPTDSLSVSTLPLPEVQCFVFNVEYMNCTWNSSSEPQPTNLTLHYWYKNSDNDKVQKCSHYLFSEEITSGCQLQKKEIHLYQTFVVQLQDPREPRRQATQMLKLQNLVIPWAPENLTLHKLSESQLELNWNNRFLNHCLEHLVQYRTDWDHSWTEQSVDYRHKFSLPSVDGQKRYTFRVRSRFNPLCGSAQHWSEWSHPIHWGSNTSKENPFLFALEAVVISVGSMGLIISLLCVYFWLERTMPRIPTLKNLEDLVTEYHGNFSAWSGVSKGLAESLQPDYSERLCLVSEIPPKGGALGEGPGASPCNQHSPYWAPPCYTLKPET

IL-2 receptor βγ complex [2] = target: T1, IL-2 receptor βγ complex; assay: cell-based or functional assay; remark: listed apart in the source
[3] = target: T2, IL-2 receptor βγ complex on human T cells (human, UniProt P14784 27-551; P31785 23-369); assay: cell-based or functional assay
T2 sequence (looked up) 1: T1 sequence (looked up) 1
T2 sequence (looked up) 2: T1 sequence (looked up) 2

[4] = target: T3, Avi-tag Fc with human IL-2R beta and IL-2R gamma attached (Acrobiosystems ACRB-ILG-H82F3-25UG) (human, UniProt P14784 27-239; P31785 23-262); assay: BLI (Octet R8), receptor on SAX2 sensor
T3 construct: Bought; attached to the SAX2 biosensor; also called CD122 CD132; IL-2R βγ; not shown: Fc and Avi-tag
T3 sequence (looked up) 1: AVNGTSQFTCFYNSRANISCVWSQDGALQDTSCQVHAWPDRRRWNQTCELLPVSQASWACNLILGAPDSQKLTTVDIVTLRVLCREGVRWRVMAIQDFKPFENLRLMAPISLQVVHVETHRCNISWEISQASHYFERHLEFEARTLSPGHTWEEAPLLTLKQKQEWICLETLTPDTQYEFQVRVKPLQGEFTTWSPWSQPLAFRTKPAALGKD
T3 sequence (looked up) 2: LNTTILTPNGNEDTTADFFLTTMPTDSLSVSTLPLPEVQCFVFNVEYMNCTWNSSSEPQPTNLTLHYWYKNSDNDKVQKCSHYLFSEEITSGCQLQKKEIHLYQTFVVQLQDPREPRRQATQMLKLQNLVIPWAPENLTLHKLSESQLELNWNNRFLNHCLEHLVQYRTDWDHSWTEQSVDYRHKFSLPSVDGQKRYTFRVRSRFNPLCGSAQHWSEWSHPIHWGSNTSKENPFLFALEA
Procedure: (§1) Bilayer interferometry (BLI) assays were used to measure the binding constants between activatable IL-2 polypeptides (and activated versions thereof) to IL-2 receptor subunits or receptor complexes. BLI assays were conducted on an Octet® R8 instrument. Assay plates were 96 well, polypropylene, F-bottom (chimney well), black microplates (Greiner Bio-one, Cat. No: 655209). The biosensors were Octet® SAX2 (Sartorius, Cat. No: 18-5136). The assay buffer was 1X Kinetic Buffer (Sartorius, Cat. no: 18-5136) or Phosphate Buffered Saline (PBS) that contained 0.02% (v: v) Tween 20 (Polysorbate 20) and 0.1% (w/v) bovine serum albumin (BSA). The sensor was regenerated between measurements in 10 mM glycine pH 2.7 buffer.
(§2) Sensor attached receptors were either recombinant human IL-2 receptor beta containing a His-tag and Avi-tag™ (R&D Systems™) or an Avi-tag™ Fc with human IL-2R beta and IL-2R gamma attached (Acrobiosystems Cat. no: ACRB-ILG-H₈₂F3-25UG). Receptors were reconstituted from lyophilized powder to 500 μg/ml in PBS. Analytes were diluted in Kinetic buffer to 300 nM, then serially diluted to lower concentrations.

[5] = target: T4, recombinant human IL-2 receptor beta containing a His-tag and Avi-tag (human, UniProt P14784 27-239); assay: BLI (Octet R8), receptor on SAX2 sensor
T4 construct: Bought; attached to the SAX2 biosensor; also called CD122; IL-2R β; not shown: His-tag and Avi-tag
T4 sequence (looked up): T3 sequence (looked up) 1
Procedure: as §1, §2

[6] = target: T5, IL-2Rβγ on HEK-Blue IL-2Rβγ reporter cells (InvivoGen) (UniProt P14784 27-551; P31785 23-369, limits assumed); assay: cell-based or functional assay
T5 sequence (looked up) 1: T1 sequence (looked up) 1
T5 sequence (looked up) 2: T1 sequence (looked up) 2

B5: CMP-146 (ligand)
chain: APTSSSTKKTKLQLEHLLLDLQ[Nle]ILNGINNYKNPKLTR[Nle]L[hSer][Yn3(3)]KF[Ygp(3)][Nle]PKKATELKHLQCLEEELKPLEEVL[hSer]LAQSKNFHLRPRDLISNINVIVLELKGSETTF[hSer]CEYADETATIVEFLNRWITFSQSIISTLT
modifications: also: further groups not given here
Average EC50, pSTAT5 Assay (T cells), intact molecule [3]: 4.29 nM

B6: CMP-138 (ligand)
chain: [PEG4′]SGGPGPAGMKGLPGS[PEG4′]APTSSSTKKTQLQLEHLLLDLQ[Nle]ILNGIENYKNPKLTR[Nle]L[hSer][Yn3(3)]KF[Ygp(3)][Nle]PKKATELKHLQCLEEELKPLEEVL[hSer]LAQSKNFHLRPRDLISNINVIVLELKGSETTF[hSer]CEYADETATIVEFLNRWITFSQSIISTLT
modifications: bridge (positions not given here); not fully specified (bridges); numbers in words are those of the source; also: Cys58-Cys105 disulfide expected from oxidative folding
Kd [4]: 12.3 nM
koff [4]: 0.00284 s⁻¹
kon [4]: 232000 M⁻¹ s⁻¹
Kd [5]: 11.7 nM
koff [5]: 0.0105 s⁻¹
kon [5]: 898000 M⁻¹ s⁻¹

B7: CMP-136 (ligand)
chain: [PEG9′]PLGLAG[PEG9′]APTSSSTKKTQLQLEHLLLDLQ[Nle]ILNGIENYKNPKLTR[Nle]L[hSer][Yn3]KF[Ygp][Nle]PKKATELKHLQCLEEELKPLEEVL[hSer]LAQSKNFHLRPRDLISNINVIVLELKGSETTF[hSer]CEYADETATIVEFLNRWITFSQSIISTLT
modifications: bridge N-37; not fully specified (bridges)
Kd [4]: 12.6 nM
koff [4]: 0.00498 s⁻¹
kon [4]: 396000 M⁻¹ s⁻¹
Kd [5]: 8.44 nM
koff [5]: 0.00767 s⁻¹
kon [5]: 909000 M⁻¹ s⁻¹

B9: CMP-146, MMP2 cleaved (ligand)
chain: APTSSSTKKTKLQLEHLLLDLQ[Nle]ILNGINNYKNPKLTR[Nle]L[hSer][Yn3(3)]KF[Ygp(3)][Nle]PKKATELKHLQCLEEELKPLEEVL[hSer]LAQSKNFHLRPRDLISNINVIVLELKGSETTF[hSer]CEYADETATIVEFLNRWITFSQSIISTLT
modifications: also: MMP2-cleaved form, remnant not given here, Lys11 side chain attached moiety
Average EC50, pSTAT5 Assay (T cells), MMP2 cleaved molecule [3]: 0.92 nM

B11: CMP-147 (ligand)
chain: APTSSSTKKTQLKLEHLLLDLQ[Nle]ILNGINNYKNPKLTR[Nle]L[hSer][Yn3(3)]KF[Ygp(3)][Nle]PKKATELKHLQCLEEELKPLEEVL[hSer]LAQSKNFHLRPRDLISNINVIVLELKGSETTF[hSer]CEYADETATIVEFLNRWITFSQSIISTLT
modifications: also: further groups not given here
Average EC50, pSTAT5 Assay (T cells), intact molecule [3]: 3.86 nM

The next lines start with the values.

Average EC50, pSTAT5 Assay (T cells) (IL-2 receptor βγ complex [1]): 6.3 nM
Average EC50, pSTAT5 Assay in NK cells (IL-2 receptor βγ complex [2]): 0.981 nM
B1: CMP-168, MMP2 cleaved molecule (ligand)
chain: APTSSSTKKTQLQLEHLLLDLQEILNGINNYKNPKLTR[Nle]L[hSer][Yn3(4)]KF[Ygp(4)][Nle]PKKATELKHLQCLEEELKPLEEVL[hSer]LAQSKNFHLRPRDLISNINVIVLELKGSETTF[hSer]CEYADETATIVEFLNRWITFSQSIISTLT
modifications: not fully specified; ends and bridges not checked; also: MMP2 cleaved, cleavage site and linker fragments on Lys9 and Glu23 side chains not given here

Average EC50, pSTAT5 Assay (T cells), MMP2 cleaved molecule [3]: 1.29 nM
B2: CMP-147, MMP2 cleaved (ligand)
chain: APTSSSTKKTQLKLEHLLLDLQ[Nle]ILNGINNYKNPKLTR[Nle]L[hSer][Yn3(3)]KF[Ygp(3)][Nle]PKKATELKHLQCLEEELKPLEEVL[hSer]LAQSKNFHLRPRDLISNINVIVLELKGSETTF[hSer]CEYADETATIVEFLNRWITFSQSIISTLT
modifications: also: MMP2-cleaved form, remnant not given here, Lys13 side chain attached moiety

Average EC50, pSTAT5 Assay (T cells) (IL-2 receptor βγ complex [1]): 94.7 nM
Average EC50, pSTAT5 Assay in NK cells (IL-2 receptor βγ complex [2]): 38.1 nM
B3: CMP-300 (ligand)
chain: GPLGLAG[PEG4′]APTSSSTKKTQLQLEHLLLDLQEILNGINNYKNPKLTR[Nle]L[hSer][Yn3(4)]KF[Ygp(4)][Nle]PKKATELKHLQCLEEELKPLEEVL[hSer]LAQSKNFHLRPRDLISNINVIVLELKGSETTF[hSer]CEYADETATIVEFLNRWITFSQSIISTLT
modifications: lactam N-31; ends not checked

Average EC50, pSTAT5 Assay (T cells) (IL-2 receptor βγ complex [1]): 1.73 nM
Average EC50, pSTAT5 Assay in NK cells (IL-2 receptor βγ complex [2]): 0.379 nM
B4: CMP-300, MMP2 cleaved molecule (ligand)
chain: APTSSSTKKTQLQLEHLLLDLQEILNGINNYKNPKLTR[Nle]L[hSer][Yn3(4)]KF[Ygp(4)][Nle]PKKATELKHLQCLEEELKPLEEVL[hSer]LAQSKNFHLRPRDLISNINVIVLELKGSETTF[hSer]CEYADETATIVEFLNRWITFSQSIISTLT
modifications: not fully specified; ends and bridges not checked; also: cleaved by MMP2, product not given here, N-terminus linked to another sequence via PEG4, Glu23 side chain linked to another sequence

Average EC50, pSTAT5 Assay (T cells), intact molecule [3]: 3.57 nM
B8: CMP-148 (ligand)
chain: APTSSSTKKTQLQLKHLLLDLQ[Nle]ILNGINNYKNPKLTR[Nle]L[hSer][Yn3(3)]KF[Ygp(3)][Nle]PKKATELKHLQCLEEELKPLEEVL[hSer]LAQSKNFHLRPRDLISNINVIVLELKGSETTF[hSer]CEYADETATIVEFLNRWITFSQSIISTLT
modifications: also: further groups not given here

Average EC50, HEK-Blue IL-2R (CD122+, CD132+) Reporter Assay, intact molecule [6]: 1.05 nM
Kd [4]: 9.19 nM
koff [4]: 0.000786 s⁻¹
kon [4]: 85500 M⁻¹ s⁻¹
Kd [5]: 59.5 nM
koff [5]: 0.0122 s⁻¹
kon [5]: 206000 M⁻¹ s⁻¹
B10: CMP-319 (ligand)
chain: RGRRVANLVGAPTSSSTKKTQLQLEHLLLDLQEILNGINNYKNPKLTR[Nle]L[hSer][Yn3]KF[Ygp][Nle]PKKATELKHLQCLEEELKPLEEVL[hSer]LAQSKNFHLRPRDLISNINVIVLELKGSETTF[hSer]CEYADETATIVEFLNRWITFSQSIISTLT
modifications: lactam N-33; ends not checked
